Measurements from publication PMC7969741.
Non-standard residues stand in square brackets, D forms with d.

Target: αV integrin (human (endogenous in SV40 immortalized human chondrocytes))

cyclo(RGD[dF]K) (also: conjugated to 3' end of Cy3-labelled 18-nt ssDNA) [cyclic peptide RGDfK (cRGDfK)]
tension gauge tether (TGT) assay: rupture of RGDfK-dsDNA tethers of 43 and 54 pN tension tolerance and loss of cell attachment, SV40 chondrocytes prechallenged with shear stress: > 43 pN
